Laboratory results from patent US20070286858A1 (Pfizer, published 2007).
Residue numbers refer to the chain shown, from its start.

T1: murine RAGE-strep tag fusion protein (mouse, UniProt Q62151 23-343)
T1 construct: also called mRAGE-strep; mRAGE-SA
T1 chain: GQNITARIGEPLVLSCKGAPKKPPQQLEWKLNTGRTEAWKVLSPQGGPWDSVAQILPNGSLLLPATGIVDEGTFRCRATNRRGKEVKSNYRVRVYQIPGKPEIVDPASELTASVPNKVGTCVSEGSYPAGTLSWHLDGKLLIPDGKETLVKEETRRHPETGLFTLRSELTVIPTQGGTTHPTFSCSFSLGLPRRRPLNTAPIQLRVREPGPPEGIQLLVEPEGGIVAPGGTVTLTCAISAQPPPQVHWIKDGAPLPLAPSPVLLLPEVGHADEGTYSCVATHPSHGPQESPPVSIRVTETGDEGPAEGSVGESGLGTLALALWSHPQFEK

T2: baboon RAGE (baboon (Papio cyanocephalus), UniProt Q15109 23-404 (human entry))
T2 construct: On transfected 293 cells or endogenous in baboon lung sections; also called 293-baboon RAGE; RAGE in baboon lung
T2 chain: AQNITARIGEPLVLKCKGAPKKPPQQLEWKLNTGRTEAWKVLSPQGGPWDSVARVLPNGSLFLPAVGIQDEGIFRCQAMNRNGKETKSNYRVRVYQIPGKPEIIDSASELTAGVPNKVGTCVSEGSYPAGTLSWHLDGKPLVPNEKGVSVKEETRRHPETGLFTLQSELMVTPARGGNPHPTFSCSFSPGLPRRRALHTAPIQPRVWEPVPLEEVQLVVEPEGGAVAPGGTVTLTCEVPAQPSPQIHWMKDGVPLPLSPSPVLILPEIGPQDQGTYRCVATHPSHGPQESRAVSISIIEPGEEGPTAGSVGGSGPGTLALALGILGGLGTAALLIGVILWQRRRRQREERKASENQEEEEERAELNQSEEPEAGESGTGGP

B1: XT-M4-V14 (antibody, V domains shown)
VH: EVQLVESGGGLVQPGGSLRLSCAASGFTFNNYWMTWVRQAPGKGLEWVASIDNSGDNTYYPDSVKDRFTISRDNAKNSLYLQMNSLRAEDTAVYYCARGGDITTGFDYWGQGTLVTVSS
VL: DIQMTQSPSSLSASVGDRVTITCRASQDVGIYVNWFQQKPGKAPKRLIYRATNLADGVPSRFSGSRSGTDFTLTISSLQPEDFATYYCLEFDEHPLTFGGGTKVEIK
B2: XT-M4-V11 (antibody, V domains shown)
VH: B1 VH
VL: B1 VL with K45R
B3: XT-M4 VL-VH ScFv construct (scFv)
scFv: DIQMTQSPSSMSVSLGDTITITCRASQDVGIYVNWFQQKPGKSPRRMIYRATNLADGVPSRFSGSRSGSIYSLTISSLESEDVADYHCLEFDEHPLTFGSGTKVEIKDGGGSGGGGSGGGGSSEVQLVESGGGLVQPGRSLKLSCVVSGFTFNNYWMTWIRQTPGKGLEWVASINNSGDNTYYPDSVKDRFTISRDNAKSTLYLQMNSLRSEDTATYYCTRGGDITTGFDYWGQGVMVTVSS
notes: Tags (Flag in vitro, His in E. coli) inferred from detection
B4: XT-H5 (antibody, mouse IgG1, V domains shown)
VH: EVLLQQSGPELVKPGASVKISCKASGYTFTDYNMDWVKQSHGKSLEWIGDINPDNGGTIYKQKFKGKATLTVDKSSSTAYMELRSLTSEDTAVYYCTTHDHYYYALDYWGQGTSVTVSS
VL: not shown
notes: also called 1hRAGEP3/55
B5: XT-H2 VL-VH ScFv construct (scFv)
scFv: DVVLTQTPLSLPVNIGDQASISCKSTKSLLNSDGFTYLDWYLQKPGQSPQLLIYLVSDRFSGVPDRFSGSGSGTDFTLTISRVEAEDLGVYYCFQSNSLPLTFGSGTKLEIKDGGGSGGGGSGGGGSSQVQLQQSGAELAKPGASVKMSCKASGYTFTTYWMHWVKQRPGQGLYWIGYINPSTGYTEYNQKFKDKATLTADKSSSTAYMQLSSLTSEDSAVYYCARWAGYTIDYWGQGTSVTVSS
notes: Tags (Flag when translated in vitro, His when made in E. coli) are inferred from the detection antibodies

Key:
[1] = biological target: T3, soluble human streptavidin-tagged RAGE (human, UniProt Q15109 23-344); experiment: BIACORE capture, hRAGE-SA over captured antibody, steady state affinity, FC2
T3 construct: also called hRAGE-SA; human RAGE-strep
Protocol: (§1) The assays were performed by coating anti-human Fc antibodies onto a CM5 BIA chip with 5000 RU (pH 5.0, 7 min.) in flow cells 1-4. Each antibody was captured by flowing at 2.0 μg/ml over the anti-Fc antibodies in flow cells 2-4 (flow cell 1 was used as a reference).

[2] = biological target: T3, soluble human streptavidin-tagged RAGE; experiment: BIACORE capture, hRAGE-SA over captured antibody, steady state affinity, FC3
Protocol: as §1

[3] = biological target: T3, soluble human streptavidin-tagged RAGE; experiment: BIACORE capture, hRAGE-SA over captured antibody, steady state affinity, FC4
Protocol: as §1

[4] = biological target: T3, soluble human streptavidin-tagged RAGE; experiment: BIACORE capture, hRAGE-SA over captured antibody, 1:1 Langmuir global fit, FC2
Protocol: as §1

[5] = biological target: T3, soluble human streptavidin-tagged RAGE; experiment: BIACORE capture, hRAGE-SA over captured antibody, 1:1 Langmuir global fit, FC3
Protocol: as §1

[6] = biological target: T3, soluble human streptavidin-tagged RAGE; experiment: BIACORE capture, hRAGE-SA over captured antibody, 1:1 Langmuir global fit, FC4
Protocol: as §1

[7] = biological target: T1, murine RAGE-strep tag fusion protein; experiment: BIACORE capture, SA-Mu RAGE over captured antibody, 1:1 Langmuir global fit, FC2
Protocol: as §1

[8] = biological target: T1, murine RAGE-strep tag fusion protein; experiment: BIACORE capture, SA-Mu RAGE over captured antibody, 1:1 Langmuir global fit, FC3
Protocol: as §1

[9] = biological target: T1, murine RAGE-strep tag fusion protein; experiment: BIACORE capture, SA-Mu RAGE over captured antibody, 1:1 Langmuir global fit, FC4
Protocol: as §1

[10] = biological target: T3, soluble human streptavidin-tagged RAGE; experiment: BIACORE capture, hRAGE-SA over captured antibody, steady state affinity, row Average
Protocol: as §1

[11] = biological target: T3, soluble human streptavidin-tagged RAGE; experiment: BIACORE capture, hRAGE-SA over captured antibody, 1:1 Langmuir global fit, row Average
Protocol: as §1

[12] = biological target: T1, murine RAGE-strep tag fusion protein; experiment: BIACORE capture, SA-Mu RAGE over captured antibody, 1:1 Langmuir global fit, row Average
Protocol: as §1

[13] = biological target: T4, human RAGE-Fc fusion protein (human, UniProt Q15109 23-344); experiment: ELISA of in vitro translated ScFv on coated human RAGE-Fc, anti-Flag detection
T4 construct: also called hRAGE-Fc; huRAGE-Fc; not shown: Fc domain of human IgG
Protocol: ELISA plates coated with human RAGE-Fc (5 ug/ml) or BSA (200 ug/ml) in bicarbonate buffer overnight at 4° C., washed with PBS+tween 0.05% and blocked for 1 hour at room temperature with 2% milk powder PBS. Plates were incubated with in vitro translated ScFv for 2 hours at room temp. Plates were blocked and detection was with anti-Flag antibody (1/1000 dilution) followed by rabbit anti-mouse HRP (1/1000 dilution). […] Values for Kd of the ScFv in both formats as determined by BIACORE™ are used to determine the optimum antigen concentrations for selection experiments.

BSA = biological target: T5, BSA (Bos taurus, UniProt P02769); experiment: ELISA of E. coli periplasmic ScFv cross-linked with anti-His antibody, on coated BSA
T5 construct: control antigen in the ScFv ELISA; also called bovine serum albumin
Protocol: ActRIIb represents a non-binding protein expressed from the same vector as a negative control. ELISA plates were coated with human RAGE-Fc (5 ug/ml) or BSA (200 ug/ml) in bicarbonate buffer overnight at 4 °C, washed with PBS+tween 0.05% and blocked for 1 hour at room temperature with 2% milk powder PBS. Periplasmic preparations of 20 ml E. coli cultures were performed using standard procedures. The final volume of periplasmic preparations of unpurified ScFv antibodies was 1 ml of which 50 ul was pre-incubated with anti-His antibody at 1/1000 dilution for 1 hour at room temperature in a total volume of 100 ul with 2% milk powder PBS. The cross linked periplasmic preparations were added to the ELISA plate and incubated for a further 2 hours at room temperature. The plates were washed 2 times with PBS+0.05% tween and 2 times with PBS and incubated with rabbit anti-mouse HRP at 1/1000 dilution in 2% milk powder PBS. The plates were washed as before and binding was detected using standard TMB reagents. […] Starting Kd values of the ScFv in both formats as determined by BIACORE™ are used to determine the optimum antigen concentrations for affinity selections.

baboon RAGE = biological target: T2, baboon RAGE; experiment: IHC, septic baboon lung, 1 µg/ml
Protocol: Immunohistochemistry for RAGE lung tissues isolated from baboon, cynomolgus monkey, rabbit or Chinese Hamster Ovary cells over-expressing human RAGE or control CHO cells were performed using standard techniques. RAGE antibodies and rat IgG2b isotype control or mouse isotype control were used at […]. […] Following detection with HRP and Alexa Fluor 594, Alexa Fluor 488 or anti-biotin conjugated with FITC, sections were also stained with 4′-6-Diamidino-2-phenylindole (DAPI).
CHO cells stable transfected with an expression vector that expresses DNA encoding hRAGE is used as a positive control.

[14] = biological target: T3, soluble human streptavidin-tagged RAGE; experiment: BIACORE capture assay, antibody on CM5 chip, hRAGE-SA 0-100 nM in solution
Protocol: The assays were performed by coating antibodies onto a CM5 BIA chip with 5000-7000 RU.

T5 sequence (P02769 25-607 limits assumed): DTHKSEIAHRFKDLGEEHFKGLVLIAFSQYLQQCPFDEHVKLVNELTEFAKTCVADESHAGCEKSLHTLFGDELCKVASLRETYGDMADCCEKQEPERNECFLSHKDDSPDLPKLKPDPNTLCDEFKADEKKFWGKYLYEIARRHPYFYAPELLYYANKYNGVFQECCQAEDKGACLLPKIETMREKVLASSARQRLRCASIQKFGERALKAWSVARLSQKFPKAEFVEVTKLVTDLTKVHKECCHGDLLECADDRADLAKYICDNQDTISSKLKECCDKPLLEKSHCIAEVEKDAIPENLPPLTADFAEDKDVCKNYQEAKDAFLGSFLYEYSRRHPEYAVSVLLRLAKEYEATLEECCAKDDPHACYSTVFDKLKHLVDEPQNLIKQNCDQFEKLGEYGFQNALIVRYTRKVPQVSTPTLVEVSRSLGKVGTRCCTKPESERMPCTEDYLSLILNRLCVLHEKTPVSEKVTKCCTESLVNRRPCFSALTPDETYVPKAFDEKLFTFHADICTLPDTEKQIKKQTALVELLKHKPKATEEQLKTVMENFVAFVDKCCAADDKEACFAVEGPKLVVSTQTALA

Row | Binder | Kd [1] [nM] | Kd [2] [nM] | Kd [3] [nM] | Kd [4] [nM] | koff [4] [s⁻¹] | kon [4] [M⁻¹ s⁻¹] | Kd [5] [nM] | koff [5] [s⁻¹] | kon [5] [M⁻¹ s⁻¹] | Kd [6] [nM] | koff [6] [s⁻¹] | kon [6] [M⁻¹ s⁻¹] | Kd [7] [nM] | koff [7] [s⁻¹] | kon [7] [M⁻¹ s⁻¹] | Kd [8] [nM] | koff [8] [s⁻¹] | kon [8] [M⁻¹ s⁻¹] | Kd [9] [nM] | koff [9] [s⁻¹] | also measured
1 | B1 | 16 | 15 | 16 | 13.8 | 0.0366 | 2.66e+06 | 11.7 | 0.0464 | 3.96e+06 | 13.2 | 0.0661 | 5.02e+06 | 2 | 0.0043 | 2.2e+06 | 1.9 | 0.004 | 2.1e+06 | 2 | 0.0041 | kon [9]: 2.1e+06 M⁻¹ s⁻¹; Kd [10]: 16 nM; Kd [11]: 12.9 nM; koff [11]: 0.0497 s⁻¹; kon [11]: 3.88e+06 M⁻¹ s⁻¹; Kd [12]: 2 nM; koff [12]: 0.0042 s⁻¹; kon [12]: 2.1e+06 M⁻¹ s⁻¹
2 | B2 | 16 | 15 | 17 | 13 | 0.033 | 2.5e+06 | 12 | 0.039 | 3.4e+06 | 13 | 0.041 | 3.2e+06 | 2 | 0.0043 | 2.2e+06 | 2 | 0.0042 | 2.1e+06 | 2 | 0.0041 | kon [9]: 2e+06 M⁻¹ s⁻¹; Kd [10]: 16 nM; Kd [11]: 12.5 nM; koff [11]: 0.0374 s⁻¹; kon [11]: 3.01e+06 M⁻¹ s⁻¹; Kd [12]: 2 nM; koff [12]: 0.0042 s⁻¹; kon [12]: 2.1e+06 M⁻¹ s⁻¹
3 | B3 | – | – | – | – | – | – | – | – | – | – | – | – | – | – | – | – | – | – | – | – | binding result [13]: binds; binding result (BSA): no binding
4 | B4 | – | – | – | – | – | – | – | – | – | – | – | – | – | – | – | – | – | – | – | – | binding result (baboon RAGE): binds; Ka [14]: 3.69e+08 M⁻¹; Kd [14]: 2.71 nM; koff [14]: 0.00451 s⁻¹; kon [14]: 1.66e+06 M⁻¹ s⁻¹
5 | B5 | – | – | – | – | – | – | – | – | – | – | – | – | – | – | – | – | – | – | – | – | binding result [13]: binds; binding result (BSA): no binding
